In article PMC9352680, “A comprehensive thermodynamic model for RNA binding by the Saccharomyces cerevisiae Pumilio protein PUF4”:
Residue numbers refer to the chain shown, from its start. In names and notes the source's numbering stands.

T1: PUF4 RNA-binding domain (Saccharomyces cerevisiae, UniProt P25339 537-888)
T1 sequence: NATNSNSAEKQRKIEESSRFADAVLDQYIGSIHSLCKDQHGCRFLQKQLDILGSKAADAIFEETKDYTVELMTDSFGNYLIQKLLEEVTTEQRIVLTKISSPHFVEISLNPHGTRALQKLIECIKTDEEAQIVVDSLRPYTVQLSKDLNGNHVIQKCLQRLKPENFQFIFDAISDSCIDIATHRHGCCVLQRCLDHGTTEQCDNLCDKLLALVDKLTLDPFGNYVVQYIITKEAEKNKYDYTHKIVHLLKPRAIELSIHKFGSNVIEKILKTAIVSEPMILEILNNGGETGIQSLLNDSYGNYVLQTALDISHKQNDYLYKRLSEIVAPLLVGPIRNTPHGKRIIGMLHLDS

B1: Ie_S4_P3E.2_K3.1_C3.2_[+-1CTCTC]_H3.1_A3.1_F3.1_T3.2 (ssRNA)
RNA: UUUGACAACUGAUCGUUCUUUCUCUCUCUCUGUAUAUAUAUUCUUUCUCGAUCAGUUGUCUUU
B2: Ie_S4_P3E.2_K3.1_C3.2_H3.1_[+1TC]_A3.1_F3.1_T3.2 (ssRNA)
RNA: UUUGACAACUGAUCGUUCUUUCUCUUUCGUAUAUAUAUUCUUUCUCGAUCAGUUGUCUUU
B3: Ie_S4_P3E.2_K3.1_C3.2_H3.1_[+1TCC]_A3.1_F3.1_T3.2 (ssRNA)
RNA: UUUGACAACUGAUCGUUCUUUCUCUUUCCGUAUAUAUAUUCUUUCUCGAUCAGUUGUCUUU
B4: Ie_S4_P3E.2_K3.1_C3.2_H3.1_[+1CTT]_A3.1_F3.1_T3.2 (ssRNA)
RNA: B3 RNA with U27C, C28U, C29U
B5: Ie_S4_P3E.2_K3.1_C3.2_H3.1_[+1CCTC]_A3.1_F3.1_T3.2 (ssRNA)
RNA: UUUGACAACUGAUCGUUCUUUCUCUUCCUCGUAUAUAUAUUCUUUCUCGAUCAGUUGUCUUU
B6: Ie_S4_P3E.2_K3.1_C3.2_H3.1_[+1TTCC]_A3.1_F3.1_T3.2 (ssRNA)
RNA: B5 RNA with C27U, C28U, U29C
B7: Ie_S4_P3E.2_K3.1_C3.2_H3.1_[+1CCTCT]_A3.1_F3.1_T3.2 (ssRNA)
RNA: B1 RNA with C26U, U27C
B8: Ie_S4_P3E.2_K3.1_C3.2_H3.1_[+1TTCCT]_A3.1_F3.1_T3.2 (ssRNA)
RNA: B1 RNA with C26U, C28U, U29C
B9: Ie_S4_P3E.2_K3.1_C3.2_H3.1_[+2CT]_A3.1_F3.1_T3.2 (ssRNA)
RNA: B2 RNA with U27G, G29U
B10: Ib_S2_P3E.1_K3.1_C3.1_H3.1_[G2C]_A3.1_[T5C]_F3.1_T3.1 (ssRNA)
RNA: UUUGAUUAAUAUGAUAUCGUUCUUUCUUCUACAUAUUCUUUCUCGAUAUCAUAUUAAUCUUU
B11: Ie_S4_P3E.2_K3.1_C3.2_H3.1_[+2CCT]_A3.1_F3.1_T3.2 (ssRNA)
RNA: B3 RNA with U27G, G30U
B12: Ie_S4_P3E.2_K3.1_C3.2_H3.1_[+2TCC]_A3.1_F3.1_T3.2 (ssRNA)
RNA: B3 RNA with U27G, C28U, G30C
B13: Ie_S4_P3E.2_K3.1_C3.2_H3.1_[+2TTT]_A3.1_F3.1_T3.2 (ssRNA)
RNA: B3 RNA with U27G, C28U, C29U, G30U
B14: Ie_S4_P3E.2_K3.1_C3.2_H3.1_[+2TCTCT]_A3.1_F3.1_T3.2 (ssRNA)
RNA: B1 RNA with C26U, U27G, C28U, U29C, C30U, U31C, G32U
B15: Ie_S4_P3E.2_K3.1_C3.2_H3.1_[+3C]_A3.1_F3.1_T3.2 (ssRNA)
RNA: UUUGACAACUGAUCGUUCUUUCUCUUGUCAUAUAUAUUCUUUCUCGAUCAGUUGUCUUU
B16: Ie_S4_P3E.2_K3.1_C3.2_H3.1_[+3CCC]_A3.1_F3.1_T3.2 (ssRNA)
RNA: B3 RNA with U27G, C28U, G30C, U31C
B17: Ie_S4_P3E.2_K3.1_C3.2_H3.1_[+3CTT]_A3.1_F3.1_T3.2 (ssRNA)
RNA: B3 RNA with U27G, C28U, G30U
B18: Ie_S4_P3E.2_K3.1_C3.2_H3.1_[+3TTCC]_A3.1_F3.1_T3.2 (ssRNA)
RNA: B5 RNA with C27G, C28U, C30U, G31C, U32C
B19: Ie_S4_P3E.2_K3.1_C3.2_H3.1_[+3CCCT]_A3.1_F3.1_T3.2 (ssRNA)
RNA: B5 RNA with C27G, C28U, U29C, G31C
B20: Ie_S4_P3E.2_K3.1_C3.2_H3.1_[+3TCTCT]_A3.1_F3.1_T3.2 (ssRNA)
RNA: B1 RNA with C26U, U27G, C28U, G32C
B21: Ib_S2_P3E.1_K3.1_C3.1_H3.1_[G2A]_A3.1_[T5C]_F3.1_T3.1 (ssRNA)
RNA: B10 RNA with C29A
B22: Ie_S4_P3E.2_K3.1_C3.2_H3.1_[+3CCTCT]_A3.1_F3.1_T3.2 (ssRNA)
RNA: B1 RNA with C26U, U27G, C28U, U29C, G32C
B23: Ie_S4_P3E.2_K3.1_C3.2_H3.1_[+3TTCCT]_A3.1_F3.1_T3.2 (ssRNA)
RNA: B1 RNA with C26U, U27G, C28U, C30U, U31C, G32C
B24: Ie_S4_P3E.2_K3.1_C3.2_H3.1_[+4CCC]_A3.1_F3.1_T3.2 (ssRNA)
RNA: B3 RNA with U27G, C28U, C29A, G30C, U31C, A32C
B25: Ie_S4_P3E.2_K3.1_C3.2_H3.1_[+4CCT]_A3.1_F3.1_T3.2 (ssRNA)
RNA: B3 RNA with U27G, C28U, C29A, G30C, U31C, A32U
B26: Ie_S4_P3E.2_K3.1_C3.2_H3.1_[+4CTC]_A3.1_F3.1_T3.2 (ssRNA)
RNA: B3 RNA with U27G, C28U, C29A, G30C, A32C
B27: Ie_S4_P3E.2_K3.1_C3.2_H3.1_A3.1_[+6C]_F3.1_T3.2 (ssRNA)
RNA: B15 RNA with C29A, A30U, U31A, A32C
B28: Ie_S4_P3E.2_K3.1_C3.2_H3.1_A3.1_[+6TC]_F3.1_T3.2 (ssRNA)
RNA: B2 RNA with U27G, C28U, G29A, A33C
B29: Ie_S4_P3E.2_K3.1_C3.2_H3.1_A3.1_F3.1_[+7C]_T3.2 (ssRNA)
RNA: B15 RNA with C29A, A30U, U31A, A32U, U33C
B30: Ie_S4_P3E.2_K3.1_C3.2_H3.1_A3.1_F3.1_[+8T]_T3.2 (ssRNA)
RNA: B15 RNA with C29A, A30U, U31A, A32U, U33A, A34U
B31: Ie_S4_P3E.2_K3.1_C3.2_H3.1_A3.1_F3.1_[+8CC]_T3.2 (ssRNA)
RNA: B2 RNA with U27G, C28U, G29A, U34C, A35C
B32: Ib_S2_P3E.1_K3.1_C3.1_H3.1_[G2A]_A3.1_[T5A]_F3.1_T3.1 (ssRNA)
RNA: B10 RNA with C29A, C32A
B33: Ie_S4_P3E.2_K3.1_C3.2_H3.1_A3.1_F3.1_[+8CCCTT]_T3.2 (ssRNA)
RNA: UUUGACAACUGAUCGUUCUUUCUCUUGUAUAUACCCUUUAUUCUUUCUCGAUCAGUUGUCUUU
B34: Ie_S4_P4E.1_K4.1_C4.1_H4.1_[+1CT]_A4.1_F4.1_T4.1 (ssRNA)
RNA: UUUGACAACUGAUCGUUCUUUCUUCUGUAUAUUAUUCUUUCUCGAUCAGUUGUCUUU
B35: Ie_S4_P4E.1_K4.1_C4.1_H4.1_[+1CTC]_A4.1_F4.1_T4.1 (ssRNA)
RNA: UUUGACAACUGAUCGUUCUUUCUUCUCGUAUAUUAUUCUUUCUCGAUCAGUUGUCUUU
B36: Ie_S4_P4E.1_K4.1_C4.1_H4.1_[+1TCC]_A4.1_F4.1_T4.1 (ssRNA)
RNA: B35 RNA with C25U, U26C
B37: Ie_S4_P4E.1_K4.1_C4.1_H4.1_[+1TTT]_A4.1_F4.1_T4.1 (ssRNA)
RNA: B35 RNA with C25U, C27U
B38: Ie_S4_P4E.1_K4.1_C4.1_H4.1_[+1CTCT]_A4.1_F4.1_T4.1 (ssRNA)
RNA: UUUGACAACUGAUCGUUCUUUCUUCUCUGUAUAUUAUUCUUUCUCGAUCAGUUGUCUUU
B39: Ie_S4_P4E.1_K4.1_C4.1_H4.1_[+1CCCT]_A4.1_F4.1_T4.1 (ssRNA)
RNA: B38 RNA with U26C

Molecular target: T1, PUF4 RNA-binding domain
Assay: Mg; RNA-MaP; 20 mM Na-HEPES pH 7.4, 30 mM KOAc, 0.75 mM MgCl2, 0.1% Tween-20, 5% glycerol, 0.1 mg/mL BSA, 2 mM DTT; 25 C; 0.0125-409.6 nM protein
Conditions: tags: N-His6-TEV cleaved; C-SNAP kept, Cy3B-labelled; label: tethered on chip by stalled RNA polymerase

Binder	Kd [nM]
B1	0.676
B2	50.6
B3	25.7
B4	0.982
B5	64
B6	45.7
B7	0.898
B8	1.16
B9	60.8
B10	> 2300
B11	41.1
B12	10.8
B13	16.5
B14	23.6
B15	6.8
B16	13.7
B17	11.4
B18	23.4
B19	32.7
B20	11.8

Binder	Kd [nM]
B21	467
B22	21.3
B23	19.9
B24	1.57
B25	1.24
B26	1.08
B27	0.411
B28	2.11
B29	2.77
B30	1.33
B31	2.91
B32	1820
B33	6.29
B34	0.223
B35	8.22
B36	7.21
B37	0.249
B38	0.208
B39	0.155
